# Experimental data published in the supplement of paper PMC9170038.
# Test system: K4 kissing-loop RNA reporter
# Assay: apparent KD of K4 kissing-loop reporter; higher = weaker reporter binding
# Settings: Eterna round: R107; input ligand: tryptophan 2.4 mM
# Experimental: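 RNA-MaP round R107: designed RNA switches with theophylline, tryptophan, arginine or FMN aptamers are transcribed on-chip within common flanks. They are titrated with a labelled K4 kissing-loop RNA reporter in RNA-MaP buffer (100 mM Tris pH 7.5, 80 mM KCl, 4 mM MgCl2), without ligand or with the indicated ligand. Median apparent KD per design.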
# 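Also: bound reporter read as fluorescence of individual clusters on recovered sequencing chips by microscopy, with normalized cluster intensities fitted with a binding model.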
row,Sequence,apparent KD of K4 kissing-loop reporter
1,UGAUAGGACAGAAGGAGCGGAAGUGAUGUUUCCAAUGGAUAAAAGGUGUCAAAGACACCCUUCCAGGUAGGUCGCUGUCCUAUCU [ArgBX 17 #Palindromic #SwitchBubble #StaticStem],132 nM
2,AAAUUUAAUAUAUUUAAUUAAUUAAGUGAUACCAGACAUUAAUAAGUCCCUUGGCAGCGCAAUGCAGUGAUGUUGCUUAUAAUAA [#18 K4 Theophylline A Same State],48 nM
3,AAUAACUUGCAGUGAUGUUGCAAGAAAGCUCAGGAUAUCAGGAAACUGAGAAGGGAGCAUCCUGAGCAAACAUCACAACUUAGGA [[K1]-[K2]-[F1]-[F2]-[F]'-[K]'-[F]''_Design2],361 nM
4,CUUAAGACAUGAGUGAUGUUCAUGUCCGAAGGAGCGUGCGAAAGCACAGGUAGGUCGCGGACGUGAGUGAUGUUCAUGUAAGCGA [KL-XArg-A11 #analogue],140 nM
5,UUAGUCUAGAGAAGGAGCGAGUGAUGUUUGCUAAGAUCUAUGAUAUCAUAGAUCAAAUUUACUCAGGUAGGUCGCUCUAGACAUU [AK4 Exc Arginine B],137 nM
6,UUGAGCCUGACGUAAGUCAGGCUCUGCGAGCGAGGACCGGUACGGCCGCCACUCGGUGCAGUGAUGUUGCAUGGCCGCAAGGCCG [#2 Exclusion - Tryptophan A Attempt #15 (HarryS)],339 nM
7,AGGCACGAGCAAGGAUAUCGAGUAGAGUGAUGUUCUGCCUGGGUUGGCUCGAAAGAGCCUUCUCAGCGAGAAGGUGCUCGUGCCU [#2 Same State - FMN A Attempt #21 (HarryS)],751 nM
8,GCUAUGGUAGGAAGGAGCGCUUACUCGGUAAUAAGAGUGAUGUUCGAUACCGAGUAUUUAUAGCAGGUAGGUCGCCUACUAUAGC [Arginine B K4 5],227 nM
9,AUUAUAUAGGCGGCCGCCACUAGUGAUGUUAGUGACUAUAUGAAAACAUAUAGAAUAAAAUAAUAUAGGACCGGGCCAUAAUAUU [AstrosExTryB#4],471 nM
10,AAGGGCUAGGCGGCCGCCACUGGUCGUGUACACAUACAAACCAGUGAUGUUGGUAUUGUAUGCGACAGGACCGGGCCUAGCCGAA [Exclusion - Tryptophan B (Freestyle 28)],481 nM
11,CACUUACGUAGUGAUGUUACGAUCUCUGAUACCAGACAACUCUAAGUCCCUUGGCAGCAGUCAUUUUGCUUUUAAUUUACUCAAA [JR_ExcTheophyA_Sub014],425 nM
12,UAGUUGCCGGUUUGUAGGCUUCGGCAGUGGGAGGAUAUGUUGACCGACAGAAGGCCCAGUGAUGUUGGGCGAUUGGCGGUGAGAU [Antebear],123 nM
13,UAGUCCUAGUGAUCCUUAUCAAGUGGUGGGCGAGGACCGGUACGGCCGCCACUCGACUAUGCAGUGAUGUUGCAAUCCGGACAAU [Exclusion - Tryptophan A (Freestyle 13)],179 nM
14,AGAGUUAUGCGAGGAUAUGCAGUUAGUACUCAAAGAGUACUAACGCAGAGUGAUGUUCUGUGAAAAGCAGAAGGUGCAUAACUCA [Omei KL FMN B SS B v6],669 nM
15,GCGCGUCAUGUCAGCGGUGACUUUGUCGAUACCAGCGCCGCAAGGCGCCCUUGGCAGCGACGCGCUGGAGUGAUGUUCCAGCGUG [#2 Exclusion - Theophylline A Attempt #12 (HarryS)],126 nM
16,CGCAGUGAUGUUGCUAUUAUUCUUGGUUAACGAGGACCGGUACGGCCGCCACUCGAUUUCUAUCUAAUCCAGUGUUUUUUUGAGU [JR_ExcTryptoA_Sub003],204 nM
17,CACAAUUAAUUACAGUGAUGUUGUAAUCUGCGAGGACCGGUACGGCCGCCACUCGGGCUUGUAGGGCGCCCACAUUCUUAUACUA [theeternabot_sameState_KL_Trp_A_29],360 nM
18,AGGGUUAAUUAGUCUUUUUUCACAUUAAGUCAGGAUAUCGUAUUUUCGAGAAGGGACACAUGCUAGUGAUGUUAGCUAUUUCCCA [#02 K4 FMN A Exclusion],86.2 nM
19,GCCGUACGCAUGGAUACCAGACUACCAUUGGAAACAAUGUGUCCGGUAGUGAUGUUACCUGUCCCUUGGCAGCCAUGCGUACGGC,655 nM
20,CACUUACGUAGUGAUGUUACGAUCUCUGAUACCAGACAACUCUAAGUCCCUUGGCAGCAGUCAUUUUGCUUCAAAUUUACUCAAA [JR_ExcTheophyA_Sub013],520 nM
21,AAUACUAUCAGAAGGAGCGUGGAAUAUUCAUCUGUAUCUAAUACGAGUGAUGUUCGUAAUUCACAGGUAGGUCGCUGAUCAAUAA [whbob_Ex_Arginine_B_2th156],213 nM
22,CGCAGUGAUGUUGCGAAUAUAAUUACGGAAGGAGCGCGUGAAAACGCAGGUAGGUCGCCGUUUGGUAUGAUGGAAACAUCGUACC [Arginine A K4 10],117 nM
23,UCCAAGGACGAACCGGUAUGAUCACCGGAUACCAGAGGCGAAAGCCUCCCUUGGCAGCCGAGUGUAGUGAUGUUACACUGGUUCU,91.5 nM
24,GGAUCCACCAGUGAUGUUGGAGAAAACUCCAAGGAUAUGACGAAAGUCAGAAGGUGGUAGACUGGGCAAAGUCCGGUCGGAUCCA [FmnA10 G66],355 nM
25,AAGCGUAAAAUGGCGGACAUACUGCUCCCACGAGGACCGGUACGGCCGCCACUCGAAUGCGGCAGUGAUGUUGCCGCCUUCGCGU [Zauslereed],62.5 nM
26,AGUGUUGUAUGACGGUUUGUCACUUAGGAUCAGGAUAUAUAAACAAAUAGAAGGGAUGGCGGAGUGAUGUUCCGCCGGCCGCCAU [FMN A Exl V9],94.3 nM
27,GCCGUAGAUCGAAGGAGCGUGUCCAAACCUCAUUCAUGUACACACGAGUGAUGUUCGUGUACACAGGUAGGUCGCGAUCUACGGC [#04 K4 Arginine B Exclusion],310 nM
